{
  "source": "patent US11472875",
  "proteins": {"B1": {"name": "human matriptase (protein)", "chain": "GSDEKDCDCGLRSFTRQARVVGGTDADEGEWPWQVSLHALGQGHICGASLISPNWLVSAAHCYIDDRGFRYSDPTQWTAFLGLHDQSQRSAPGVQERRLKRIISHPFFNDFTFDYDIALLELEKPAEYSSMVRPICLPDASHVFPAGKAIWVTGWGHTQYGGTGALILQKGEIRVINQTTCENLLPQQITPRMMCVGFLSGGVDSCQGDSGGPLSSVEADGRIFQAGVVSWGDGCAQRNKPGVYTRLPLFRDWIKENTGV"}},
  "key": {"[1]": {"molecular_target": "T1, CM1-CM2 substrate 2003", "T1 chain": "ISSGLLSGRSANPRG"}, "[2]": {"molecular_target": "T2, CM1-CM2 substrate 2005", "T2 chain": "AVGLLAPPSGRSANPRG"}, "[3]": {"molecular_target": "anti-EGFR activatable antibodies comprising substrates 2001, 2006-2010 and 2012"}},
  "data": [
    {"protein": "B1", "values": [
      {"measurement": "cleavage kinetics, fold increase as compared to substrate 2001", "setting": "[1]", "result": "approximately a 50-fold increase"},
      {"measurement": "cleavage kinetics, fold increase as compared to substrate 1004/LP′/0001", "setting": "[2]", "result": "approximately a 50-fold increase"},
      {"measurement": "kcat/Km", "setting": "[3]", "result": "a range of kcat/Km values ranging from 6E+02 to 2E+04"}
    ]}
  ]
}
